Measured values reported in the RNAGym collection of RNA variant scans (doi:10.1073/pnas.2313332121).

B1: TPR t1 (parent)
chain: GACCAAUCUGCCCUCAGAGCUCGAGAACAUCUUCGGAUGCAGAGGAGGCAGGCUUCGGUGGCGCGAUAGCGCCAACGUCCUCAACCUCCAAUGCAUCCCACCACAUGAUGAUGCCUGAAGAGCCUUGGUUUUUUG

Variants of: B1
Experiment: polymerase ribozyme fitness, log enrichment relative to wild type (log ratio); higher = more active; in vitro selection for triplet polymerase activity
Summary of the method: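 Input and output libraries were sequenced on Illumina after a single in vitro selection round, run in triplicate on PCR-built, transcribed mutant libraries of each subunit of a heterodimeric triplet polymerase ribozyme. Selection annealed libraries to a biotinylated primer, the partner subunit and triplets, incubated them frozen at −7 °C, then gel-excised extended constructs for streptavidin-bead capture and RT-PCR. Genotypes with ≥10 input reads and ≥1 read per output were kept. Fitness is the logarithm, taken in base 2, of genotype enrichment divided by wild-type enrichment, using inverse-variance-weighted replicate averages.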

Row | Variant | polymerase ribozyme fitness (log ratio)
1 | U32C A84U | -0.174
2 | U33G U96A G110C U116G | -6.31
3 | G35A C64A C114G U125G | -7.35
4 | G35A C88U C102A | -5.27
5 | C31U G36C G61A | -4.05
6 | U32A G57U | -4.02
7 | U32C G120C | 1.83
8 | C34G G120A | -5.16
9 | U33A A46C G69U U78G | -2.03
10 | C34A U55C G60C U129G | -4.03
11 | C31A C56U | -4.45
12 | C31G G51U C97A C124U | -6.07
13 | U33G U133G | -6.24
14 | C34A U116C | -5.3
15 | G35A G60C | -5.49
16 | C34U C64U C88U | -4.34
17 | C34G C98G C115A U125A | -7.53
18 | G36A C56A G61A | -2.16
19 | G36A G45C G58C C64G G117U | -6.11
20 | G35C C72U C99A C102U U116C U130G | -6.33
21 | C34U C56A | -5.06
22 | U33G G47C G61C C80A U112A U116C A119U | -6.76
23 | C34U U133A | -4.62
24 | C31G G48U G65A C86G A100C G120C | -6.59

Row | Variant | polymerase ribozyme fitness (log ratio)
25 | C34A C97G U125A | -3.42
26 | G36A G44U C72A C88A U106G G113C | -5.9
27 | U32C C62A C82G G120C | -2.66
28 | U33A G127C | -4.76
29 | C34G U55C G58A C82A C85U C88A C123U U131G | -6.74
30 | G36A U59A | -0.196
31 | U33C A46G C64G C86A C115G | -5.34
32 | C34G C72U U109A A119U C123U | -8.4
33 | G36A C82U C123G | 0.9
34 | U32A G47U C72U A83U | -5.74
35 | C34A A46U A68U G71C C124G | -7.38
36 | G35C C124A | -2.66
37 | U33G C82U A83C | -6.87
38 | G35C C88U | -4.03
39 | U32C G69C G128C | -4.73
40 | G35A C101U C115A | -3.56
41 | U33A U59A U112C G122C | -4.47
42 | C34G C64U | -6.18
43 | C34A C53U C114A U129C | -5.56
44 | U32G U33C A43U A91U C124U | -5.75
45 | U33G G128A | -6.19
46 | G35A C72G | -2.69
47 | G35A C72U | -4.58
48 | C34U G45C G69U C115G | -3.26

Row | Variant | polymerase ribozyme fitness (log ratio)
49 | U32C C40U C86G | -2.2
50 | U32A A43G C88U G93A C114G | -5.05
51 | U33G U55A C72G | -6.25
52 | U32C G52A G61A U125A | -0.743
53 | C31U C70U C72U | -5.69
54 | C34U U106A | -4.95
55 | C34U U106C | -3.99
56 | C31U C40U G45A | -6.8
57 | U32A A41U | -5.52
58 | C34G G63U | -8.24
59 | C34G G63A | -7.1
60 | G35C C53G C56U U130A | -6.86
61 | C34U G44U | -4.41
62 | U33A G69U | -0.74
63 | C34A G44A G48A U59A G61U C72U A121C C123G | -6
64 | C34A C101U | -2.53
65 | C34G A108G | -6.09
66 | U32C C73U C85U C98U | -4.19
67 | G35A C62U | -4.22
68 | G35A C62A | -5.05
69 | C34G C72A U106G A119U | -7.42
70 | C31A G77C U112C | -4.36
71 | C34U G36U G61A C97G A119G | -3.91
72 | G36A C62U C72U | -0.886

Row | Variant | polymerase ribozyme fitness (log ratio)
73 | C34A G128C | -4.73
74 | U32C C49U A95C U133A | -1.67
75 | G36A G71U U106A | -1.11
76 | C34A G44A G48A G61U A121C C123G | -4.48
77 | C34A U59A C114A | -5.37
78 | U32C G48C | -1.44
79 | G35A G63C G71U C114A | -6.69
80 | U33G C104U C123G | -4.29
81 | U32G A43G C73U A105U G120C | -7.51
82 | U32C U116C | -1.17
83 | U32C C73A C85G | -3.02
84 | U33C U131A | -4.45
85 | C34U C53U U109G A119U A121C | -6.04
86 | C34A C94U A121G U125A U129A | -3
87 | C34G G36U C72U U96C G127C U130G | -6.19
88 | C34G G63U C72U G110U | -8.01
89 | G36A C72A C97U | 0.549
90 | G36C A50C G71A A118U G120A | -1.49
91 | C31U | -4.29
92 | C31G | -7.22
93 | C34G C79A A91C C97U C99U A100C C101U G113C U130A | -6.71
94 | U33A C102G U112A | -6.38
95 | G35U C53U G69U G110U | -4.63
96 | C34A C101U C104U U133A | -1.95

Row | Variant | polymerase ribozyme fitness (log ratio)
97 | G36A G45C C114A | -3.75
98 | G36A C72U C85G C89U C94U | -2.78
99 | C31U G57C U106A | -0.497
100 | C31G G120A | -5.69
101 | C31G G120C | -5.91
102 | U32C G52A U78C C101A | -1.13
103 | U33A U129A | -6.13
104 | C34G U78G | -6.71
105 | U33A A46C G69U | -0.918
106 | U32A G120C | -3.07
107 | U32C G48U G69A | -3.8
108 | G36A G110U A121U | -2.05
109 | C34U U116C | -5.7
110 | U32G U33C A43U A91U | -6.04
111 | U32C C79U U106C | -0.788
112 | C34U G120A A121C | -4.71
113 | C34A C70U C79U | -4.29
114 | G35U C115A G120C | -5.77
115 | G36A U54G | -1.04
116 | U32A C73A C97U | -6.06
117 | G35C U87A | -5.04
118 | U32C C49A | -0.089
119 | U32A G39U G45C C64G C114A | -6.51
120 | U33G G60U C85G | -7.61

Row | Variant | polymerase ribozyme fitness (log ratio)
121 | C34G C62U C94G A105C U130C | -7.14
122 | C31U U59C G120U G127C | -5.99
123 | C34A U87A A105G | -6.02
124 | C31U C56A C73G U106A C124A | 0.239
125 | G36A G61A A103C A118U | -5.74
126 | U32C C79G U81C G113A | -2.36
127 | C31U A46C G47U C98A G120C | -7.6
128 | C34G G51U C53A G69U G120U | -7.39
129 | C34U G69U | -0.765
130 | G35A C70U | -2.72
131 | G36A C123A | 0.117
132 | U33A G48U U55C U109C A121G C124A G127C | -5.45
133 | C34A G36C A46G G93U A119G | -3.14
134 | U33C G45A | -5.98
135 | C34A U59A C115U A118U | -6.82
136 | G36A C70A | -2.23
137 | C34A C72U A100U | -4.44
138 | G36A C85G U131C | -2.08
139 | U32A G44U U55A | -5.23
140 | C31G C56A G60U U109A | -7.12
141 | C31A C98U | -7.02
142 | G36A C62A C89U A95C C114U | -6.66
143 | U33G G63C C124A | -4.77
144 | C31A A95U | -5.15

Row | Variant | polymerase ribozyme fitness (log ratio)
145 | G36A U106A G117A | -1.88
146 | G36A A46U G47C C56U U106A | -3.75
147 | U33G G65U C72G A111C A118U | -6.82
148 | C31G C85U C123U | -5.56
149 | C34A A46U | -3.37
150 | U32G C53A C64U U109G | -7.34
151 | C34A A50C | -3.5
152 | U32C U55G C102A | -2.56
153 | G36A A43C C115A | -3.76
154 | G36A A66U C88A C104G G113A C123G C124A | -5.59
155 | C34A G120A | -2.29
156 | C34U C53U G61U G120A U132A | -3.26
157 | C34A G60U | -3.73
158 | C34A G60A | -3.35
159 | U32A C56G G77U C99A C123U U125G | -5.41
160 | C34U G39C A50G | -5.57
161 | C34U U54A | -4.44
162 | C34U U59A | -5.75
163 | C34U G52A C62G A119G C123U G135C | -5.87
164 | C31A C115U | -7.47
165 | U32G C56A C97A U109A | -6.23
166 | G35A G69C | -4.88
167 | C31U G48A C73U U106G | -3.4
